Reference: US7413870B2, “SAK: modulation of cellular proliferation for treatment of cancer” (Rigel Pharmaceuticals, Incorporated, priority 2001, dated 2008)
Numbering of substitutions follows the chain as printed. Names may count otherwise. Where two headings read alike, the source gives them in different places.

B1: SAK wild type: wild type human SAK serine/threonine kinase (SEQ ID NO:2), overexpressed in cells (protein, UniProt O00444 1-970, looked up)
Serine/threonine-protein …: MATCIGEKIEDFKVGNLLGKGSFAGVYRAESIHTGLEVAIKMIDKKAMYKAGMVQRVQNEVKIHCQLKHPSILELYNYFEDSNYVYLVLEMCHNGEMNRYLKNRVKPFSENEARHFMHQIITGMLYLHSHGILHRDLTLSNLLLTRNMNIKIADFGLATQLKMPHEKHYTLCGTPNYISPEIATRSAHGLESDVWSLGCMFYTLLIGRPPFDTDTVKNTLNKVVLADYEMPSFLSIEAKDLIHQLLRRNPADRLSLSSVLDHPFMSRNSSTKSKDLGTVEDSIDSGHATISTAITASSSTSISGSLFDKRRLLIGQPLPNKMTVFPKNKSSTDFSSSGDGNSFYTQWGNQETSNSGRGRVIQDAEERPHSRYLRRAYSSDRSGTSNSQSQAKTYTMERCHSAEMLSVSKRSGGGENEERYSPTDNNANIFNFFKEKTSSSSGSFERPDNNQALSNHLCPGKTPFPFADPTPQTETVQQWFGNLQINAHLRKTTEYDSISPNRDFQGHPDLQKDTSKNAWTDTKVKKNSDASDNAHSVKQQNTMKYMTALHSKPEIIQQECVFGSDPLSEQSKTRGMEPPWGYQNRTLRSITSPLVAHRLKPIRQKTKKAVVSILDSEEVCVELVKEYASQEYVKEVLQISSDGNTITIYYPNGGRGFPLADRPPSPTDNISRYSFDNLPEKYWRKYQYASRFVQLVRSKSPKITYFTRYAKCILMENSPGADFEVWFYDGVKIHKTEDFIQVIEKTGKSYTLKSESEVNSLKEEIKMYMDHANEGHRICLALESIISEEERKTRSAPFFPIIIGRKPGSTSSPKALSPPPSVDSNYPTRERASFNRMVMHSAASPTQAPILNPSMVTNEGLGLTTTASGTDISSNSLKDCLPKSAQLLKSVFVKNVGWATQLTSGAVWVQFNDGSQLVVQAGVSSISYTSPNGQTTRYGENEKLPDYIKQKLQCLSSILLMFSNPTPNFH
B2: SAK K41M mutant: mutant SAK (K41M) serine/threonine kinase, overexpressed in cells in dominant negative studies (protein, UniProt O00444 1-970, looked up, variant K41M)
Serine/threonine-protein …: B1 Serine/threonine-protein … with K41M
B3: wild type mouse SAK: wild type mouse SAK overexpressed in CHO cells, from cited U.S. patents (protein, UniProt Q64702 1-925, looked up)
Serine/threonine-protein …: MAACIGERIEDFKVGNLLGKGSFAGVYRAESIHTGLEVAIKMIDKKAMYKAGMVQRVQNEVKIHCQLKHPSVLELYNYFEDNNYVYLVLEMCHNGEMNRYLKNRMKPFSEREARHFMHQIITGMLYLHSHGILHRDLTLSNILLTRNMNIKIADFGLATQLNMPHEKHYTLCGTPNYISPEIATRSAHGLESDIWSLGCMFYTLLIGRPPFDTDTVKNTLNKVVLADYEMPAFLSREAQDLIHQLLRRNPADRLSLSSVLDHPFMSRNPSPKSKDVGTVEDSMDSGHATLSTTITASSGTSLSGSLLDRRLLVGQPLPNKITVFQKNKNSSDFSSGDGSNFCTQWGNPEQEANSRGRGRVIEDAEERPHSRYLRRAHSSDRASPSNQSRAKTYSVERCHSVEMLSKPRRSLDENQHSSNHHCLGKTPFPFADQTPQMEMVQQWFGNLQMNAHLGETNEHHTVSPNRDFQDYPDLQDTLRNAWTDTRASKNADTSANVHAVKQLSAMKYMSAHHHKPEVMPQEPGLHPHSEQSKNRSMESTLGYQKPTLRSITSPLIAHRLKPIRQKTKKAVVSILDSEEVCVELLRECASEGYVKEVLQISSDGTMITVYYPNDGRGFPLADRPPLPTDNISRYSFDNLPEKYWRKYQYASRFIQLVRSKTPKITYFTRYAKCILMENSPGADFEVWFYDGAKIHKTENLIHIIEKTGISYNLKNENEVTSLKEEVKVYMDHANEGHRICLSLESVISEEEKRSRGSSFFPIIVGRKPGNTSSPKALSAPPVDPSCCKGEQASASRLSVNSAAFPTQSPGLSPSTVTVEGLGHTATATGTGVSSSLPKSAQLLKSVFVKNVGWATQLTSGAVWVQFNDGSQLVVQAGVSSISYTSPDGQTTRYGENEKLPEYIKQKLQCLSSILLMFSNPTPNFQ

Legend:
normal cells = test: antiproliferative effect of SAK wild type/mutants in normal cells (GFP positivity, cell tracker); type: cell-based
H1299 cells = test: antiproliferative effect of SAK mutant in H1299 cells; type: cell-based
CHO cells = conditions: overexpression in CHO cells; cited from earlier work

Molecule	antiproliferative activity (normal cells)	antiproliferative effect (normal cells; GFP positivity studies)	antiproliferative activity (normal cells; listed as wild type SAK)	antiproliferative effect (H1299 cells)	antiproliferative effect (CHO cells)
B1	do not have significant antiproliferative activity	no antiproliferative effect	neither wild type nor mutant SAK is antiproliferative		
B2	does not have strong antiproliferative effects			weak antiproliferative effect	
B3					antiproliferative
